Laboratory results published in patent US20160185871A1 (UNIVERSITY OF TOKYO, published 2016).

T1: human TLR9 having Flag-His6 added on the C-terminal side (human, UniProt Q9NR96 26-1032)
T1 construct: whole, on cells; Expressed in Ba/F3 cells and stained after membrane permeabilisation; not shown: C-terminal Flag-His6 tag
T1 sequence (looked up): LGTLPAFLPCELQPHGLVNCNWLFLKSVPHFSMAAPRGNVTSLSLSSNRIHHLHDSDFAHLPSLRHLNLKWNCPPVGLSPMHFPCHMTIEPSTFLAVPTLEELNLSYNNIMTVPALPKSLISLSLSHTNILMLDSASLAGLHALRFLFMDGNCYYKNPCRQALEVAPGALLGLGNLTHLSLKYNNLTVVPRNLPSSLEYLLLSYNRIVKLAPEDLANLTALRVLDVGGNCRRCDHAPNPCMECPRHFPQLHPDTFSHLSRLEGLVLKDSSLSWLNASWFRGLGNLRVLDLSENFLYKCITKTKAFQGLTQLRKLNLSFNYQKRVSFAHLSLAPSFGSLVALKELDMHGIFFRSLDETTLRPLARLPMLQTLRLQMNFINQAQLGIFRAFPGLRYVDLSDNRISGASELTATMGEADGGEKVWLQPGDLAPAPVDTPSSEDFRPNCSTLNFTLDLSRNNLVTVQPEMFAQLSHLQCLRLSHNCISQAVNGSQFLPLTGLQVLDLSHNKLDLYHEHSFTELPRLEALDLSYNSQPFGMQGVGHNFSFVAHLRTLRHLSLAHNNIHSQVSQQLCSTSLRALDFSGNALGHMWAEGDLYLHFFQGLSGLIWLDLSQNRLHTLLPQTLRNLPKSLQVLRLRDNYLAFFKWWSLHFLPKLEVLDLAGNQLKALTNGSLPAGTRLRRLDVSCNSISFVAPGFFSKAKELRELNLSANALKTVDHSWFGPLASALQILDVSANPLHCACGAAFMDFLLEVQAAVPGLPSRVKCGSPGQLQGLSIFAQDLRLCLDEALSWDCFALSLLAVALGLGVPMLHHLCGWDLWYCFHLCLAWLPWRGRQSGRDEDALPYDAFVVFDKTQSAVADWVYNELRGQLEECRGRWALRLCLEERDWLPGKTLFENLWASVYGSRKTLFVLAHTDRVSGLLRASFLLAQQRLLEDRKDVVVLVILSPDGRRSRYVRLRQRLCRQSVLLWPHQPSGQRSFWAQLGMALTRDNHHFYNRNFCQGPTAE

T2: mouse TLR9 (mouse, UniProt Q9EQU3 26-1032)
T2 construct: Stands for three settings: mouse TLR9 expressed in Ba/F3 cells (Ba/F3_mTLR9), alone or with Unc93B1, and endogenous TLR9 of spleen DC; also called mTLR9; endogenous TLR9
T2 sequence: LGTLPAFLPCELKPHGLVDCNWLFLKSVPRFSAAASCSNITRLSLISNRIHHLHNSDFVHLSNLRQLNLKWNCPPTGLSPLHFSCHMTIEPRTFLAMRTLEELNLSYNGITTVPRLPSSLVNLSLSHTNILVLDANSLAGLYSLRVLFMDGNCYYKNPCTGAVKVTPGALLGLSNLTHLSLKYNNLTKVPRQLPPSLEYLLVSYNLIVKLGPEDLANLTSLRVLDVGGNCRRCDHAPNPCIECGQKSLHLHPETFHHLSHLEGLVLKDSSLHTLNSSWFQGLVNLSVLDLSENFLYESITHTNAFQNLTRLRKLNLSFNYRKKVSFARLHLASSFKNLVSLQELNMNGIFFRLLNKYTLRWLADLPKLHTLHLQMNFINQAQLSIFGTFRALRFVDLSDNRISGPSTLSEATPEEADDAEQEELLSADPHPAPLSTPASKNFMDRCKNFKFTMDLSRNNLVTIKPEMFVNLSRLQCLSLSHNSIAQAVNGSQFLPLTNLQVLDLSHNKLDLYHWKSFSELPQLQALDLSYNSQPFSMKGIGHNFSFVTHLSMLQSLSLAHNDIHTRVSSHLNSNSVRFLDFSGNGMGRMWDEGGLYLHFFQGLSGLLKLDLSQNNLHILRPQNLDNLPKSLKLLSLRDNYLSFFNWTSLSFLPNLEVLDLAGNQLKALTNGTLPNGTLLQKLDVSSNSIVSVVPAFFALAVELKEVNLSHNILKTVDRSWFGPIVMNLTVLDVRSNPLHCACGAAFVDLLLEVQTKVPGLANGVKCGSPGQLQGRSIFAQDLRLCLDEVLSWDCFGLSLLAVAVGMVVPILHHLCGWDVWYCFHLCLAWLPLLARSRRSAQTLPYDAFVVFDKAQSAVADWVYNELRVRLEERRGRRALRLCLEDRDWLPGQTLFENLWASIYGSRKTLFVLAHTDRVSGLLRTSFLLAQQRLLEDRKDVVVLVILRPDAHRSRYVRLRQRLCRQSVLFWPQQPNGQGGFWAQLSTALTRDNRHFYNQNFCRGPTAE

T3: mouse TLR9 having Flag-His6 added on the C-terminal side (mouse, UniProt Q9EQU3 26-1032)
T3 construct: Expressed in Ba/F3 cells and stained after membrane permeabilisation; not shown: C-terminal Flag-His6 tag
T3 sequence: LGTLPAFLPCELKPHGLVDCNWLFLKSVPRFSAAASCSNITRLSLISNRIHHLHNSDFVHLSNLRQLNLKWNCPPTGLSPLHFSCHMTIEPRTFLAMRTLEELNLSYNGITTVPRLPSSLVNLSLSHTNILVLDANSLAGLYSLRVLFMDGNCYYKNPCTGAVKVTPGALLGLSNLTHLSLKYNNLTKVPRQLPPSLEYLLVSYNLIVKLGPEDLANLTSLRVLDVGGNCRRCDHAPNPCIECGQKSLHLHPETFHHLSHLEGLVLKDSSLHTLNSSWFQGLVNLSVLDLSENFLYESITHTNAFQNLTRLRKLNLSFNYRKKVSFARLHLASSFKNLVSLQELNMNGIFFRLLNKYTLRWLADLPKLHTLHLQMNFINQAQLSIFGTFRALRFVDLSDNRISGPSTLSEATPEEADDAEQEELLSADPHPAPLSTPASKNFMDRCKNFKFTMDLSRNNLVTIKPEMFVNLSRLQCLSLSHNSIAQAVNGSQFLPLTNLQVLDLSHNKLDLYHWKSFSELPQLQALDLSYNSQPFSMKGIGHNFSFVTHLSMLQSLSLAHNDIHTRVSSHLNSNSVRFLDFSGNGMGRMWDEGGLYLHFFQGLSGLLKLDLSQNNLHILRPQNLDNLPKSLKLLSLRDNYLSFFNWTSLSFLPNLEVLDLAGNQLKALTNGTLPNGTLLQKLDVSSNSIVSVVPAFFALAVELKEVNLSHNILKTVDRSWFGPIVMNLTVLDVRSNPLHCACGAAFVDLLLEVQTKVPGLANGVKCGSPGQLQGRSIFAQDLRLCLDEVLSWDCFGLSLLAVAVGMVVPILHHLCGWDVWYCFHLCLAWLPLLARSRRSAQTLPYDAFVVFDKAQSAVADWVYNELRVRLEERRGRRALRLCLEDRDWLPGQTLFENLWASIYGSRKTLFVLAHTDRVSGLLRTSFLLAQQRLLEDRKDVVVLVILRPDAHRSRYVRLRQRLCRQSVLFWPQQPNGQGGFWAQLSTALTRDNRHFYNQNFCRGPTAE

T4: TLR7N27-312 (mouse, UniProt P58681 27-312)
T4 construct: Expressed in a cell line; also called fragment of TLR7 from position 27 to position 312
T4 sequence: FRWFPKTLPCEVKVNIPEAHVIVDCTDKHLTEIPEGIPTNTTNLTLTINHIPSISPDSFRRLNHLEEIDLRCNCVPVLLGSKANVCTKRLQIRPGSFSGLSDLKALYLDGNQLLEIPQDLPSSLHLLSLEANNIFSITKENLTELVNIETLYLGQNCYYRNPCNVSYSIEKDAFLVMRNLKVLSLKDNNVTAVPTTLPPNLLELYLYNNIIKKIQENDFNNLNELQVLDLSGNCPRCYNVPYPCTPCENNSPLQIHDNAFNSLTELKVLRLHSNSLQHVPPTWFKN

T5: C terminal region TLR7 (TLR7C; from 461-st glutamic acid to 837-th aspartic acid) (mouse, UniProt P58681 461-837)
T5 construct: not shown: N-terminal HA antigen added by the pDisplay vector; Cell-surface display (membrane anchor) part of the pDisplay vector; not described
T5 sequence: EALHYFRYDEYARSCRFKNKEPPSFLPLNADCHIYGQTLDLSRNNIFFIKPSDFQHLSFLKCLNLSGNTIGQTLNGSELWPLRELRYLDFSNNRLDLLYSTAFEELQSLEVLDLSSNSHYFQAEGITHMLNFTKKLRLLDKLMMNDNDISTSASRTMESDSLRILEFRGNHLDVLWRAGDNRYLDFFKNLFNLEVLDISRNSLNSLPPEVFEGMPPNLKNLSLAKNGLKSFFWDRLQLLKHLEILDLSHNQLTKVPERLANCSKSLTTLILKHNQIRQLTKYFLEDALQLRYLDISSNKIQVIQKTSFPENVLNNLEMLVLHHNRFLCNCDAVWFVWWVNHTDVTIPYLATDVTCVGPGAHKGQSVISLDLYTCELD


Tests used:
[1] = target: T1, human TLR9 having Flag-His6 added on …; experiment: membrane permeability staining of Ba/F3 cells, flow cytometry
[2] = target: T2, mouse TLR9; experiment: flow cytometry on Ba/F3_mTLR9 cells, hybridoma selection
Source text: In order to establish a monoclonal antibody (mAb) against mouse TLR9, BALB/c TLR9^{-/-} mice were immunized with Ba/F3 cells(Ba/F3_mTLR9) that expressed mouse TLR9. Four days after final immunization, the spleen cells were fused with the SP2/0 myeloma cells. Hybridomas producing anti-mouse TLR9 mAb were selected by flow cytometry based on the staining of the Ba/F3 cells used for immunization. Three monoclonal antibodies J15A7 (IgG1/κ), C34A1 (IgG2a/κ), and B33A4 (IgG2a/κ) were established.

[3] = target: T3, mouse TLR9 having Flag-His6 added on …; experiment: membrane permeability staining of Ba/F3 cells, flow cytometry
[4] = target: T4, TLR7N27-312; experiment: flow cytometry on a cell line expressing the fragment
[5] = target: T5, C terminal region TLR7 (TLR7C; from …); experiment: flow cytometry on cells displaying the fragment

Binder	binding result [1]	binding result [2]	binding result [3]	binding result [4]	binding result [5]
C34A1 antibody (antibody, mouse IgG2a, kappa, V domains shown, Mouse monoclonal antibody from a hybridoma, IgG2a/kappa) VH: EVQLVESGGDLVKPGGSLKLSCAASGFTFSSYAMSWVRQTPDNRLEWVATSSSVGSYAYYPDNVKGRFTISRDNAKNTLYLQMSSLKSEDTAMYYCARRDYDARYWYFDVWGAGTTVTVSS VL: DIKMTQSPSSMYASLGERVTITCKASQDIKSYLSWYQLKPWKSPKTLIYYATTLADGVPSRFSGSGSGQDYSLTISSLESDDTATYYCLQHGESPYTFGGGTKLEIKR	no binding	binds	binds		
J15A7 antibody (antibody, mouse IgG1, kappa, V domains shown, Mouse monoclonal antibody from a hybridoma, IgG1/kappa; also called anti-TLR9 monoclonal antibody J15A7) VH: QVQLQQPGAELVMPGASVKMSCKASGYTFTDYWMHWVKQRPGQGLEWIGVIDTSDSYTSYNQKFNRKATLTVDESSSTAYMQLSSLTSEDSAVYYCARDGPYYAMDYWGQGTSVTVSS VL: QIVLTQSPAIMSASPGEKVTISCSASSGVSYMYWYQQKPGSSPKPWIYRTSNLASGVPARFSGSGSGTSYSLTISSMEAEDAATYYCHQYHSDPRTFGGGTKLEIKR	no binding	binds	binds		

Second part, the binder after the results:

binding result [1]	binding result [2]	binding result [3]	binding result [4]	binding result [5]	Binder
no binding					B33A4 antibody (antibody, V domains shown, Mouse monoclonal antibody from a hybridoma, IgG2a/kappa; also called anti-TLR9N) VH: EVLLQQSGPELVKPGASVKIPCKASGFTFTDYNLDWVKQSHEKSLEWIGDINPNTGGTIYNQNFKGKATLTVDRSSGTAYMELRSLTSEDTAVYFCARYFVSNYGYFDVWGAGTTVTVSS VL: SIVMTQTPKFLLVSAGDRVTITCKASQSVSYDVAWYQQKPGQSPKLLIYYASNLYTGVPDRFTGSGYGTDFTFTISTVQAEDLAVYFCQQDSSSPYTFGGGTKLEIKR
			no binding	no binding	A94B10 antibody (antibody, V domains shown, Mouse monoclonal antibody from a hybridoma, isotype IgG1; Chains were determined from full-length cDNA (5'-RACE); also called anti-mouse TLR7 antibody A94B10; anti-TLR7 monoclonal antibody) VH: EVKLVESGGGLVQPGGSLRLSCTTSGFTFSDFYMEWVRQPPGKRLEWIAASRNKRNDHTTEYSASVKGRFIVSRDTSQNILYLQMNALRAEDTAIYYCARDADYYGSSTWYFDVWGAGTTVTVSS VL: DIVMTQSHKFMSTSVGDRVSITCKASQDVRTAVAWYQQKPGQSPKLLIYWASTRHTGVPDRFTGSGSGTDYTLTISSVQAEDLALYYCQQHYNTPPTFGGGTKLEIKR
